Source: patent US20230365648A1

Assays:
Assay in all cases: BLI (Octet)
Cyno CD47 (Cyno monkey) = molecular target: Cyno CD47 (Cyno monkey)
Human CD47 (human) = Human CD47 (human) (UniProt Q08722)
Rat CD47 (rat) = Rat CD47 (rat) (UniProt P97829)
Chain of Rat CD47 (rat) (P97829 19-140): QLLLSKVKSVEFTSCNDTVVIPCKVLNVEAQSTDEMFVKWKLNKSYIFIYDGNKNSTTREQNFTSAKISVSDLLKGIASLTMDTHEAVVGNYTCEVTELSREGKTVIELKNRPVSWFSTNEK

Chain of Human CD47 (human) (Q08722 19-139): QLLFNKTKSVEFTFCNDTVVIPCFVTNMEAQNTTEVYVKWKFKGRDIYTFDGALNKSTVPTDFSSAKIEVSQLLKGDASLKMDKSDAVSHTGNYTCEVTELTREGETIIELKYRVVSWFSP

Kd (Cyno CD47 (Cyno monkey)): 0.289 nM
Kd (Human CD47 (human)): 0.216 nM
Kd (Rat CD47 (rat)): 1.16 nM
Substance: Anti-human CD47 (clone MIAP410)
